Laboratory results published in FireProtDB (doi:10.1111/j.1432-1033.1993.tb17904.x).

Settings: Carica papaya, Thermal, DSC, glycine-HCl 5 mM, reversible: yes

Chymopapain wild type, P14080, sequence (P14080 whole entry): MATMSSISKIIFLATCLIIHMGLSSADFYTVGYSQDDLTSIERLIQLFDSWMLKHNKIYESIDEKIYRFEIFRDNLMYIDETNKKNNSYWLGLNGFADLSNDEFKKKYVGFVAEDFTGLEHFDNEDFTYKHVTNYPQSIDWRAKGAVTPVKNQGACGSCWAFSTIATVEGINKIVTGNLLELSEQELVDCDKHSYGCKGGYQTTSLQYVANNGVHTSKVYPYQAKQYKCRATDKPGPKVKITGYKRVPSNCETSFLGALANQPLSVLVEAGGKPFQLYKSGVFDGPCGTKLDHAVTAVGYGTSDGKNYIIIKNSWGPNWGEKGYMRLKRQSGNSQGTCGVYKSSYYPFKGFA

Chymopapain wild type, P14080
Tm (pH 1.9): 69.3 °C | unfolding enthalpy (calorimetric) (pH 1.9): 147 kcal/mol | unfolding enthalpy (van 't Hoff) (pH 1.9): 88.3 kcal/mol | Tm (pH 2.4): 71.6 °C | unfolding enthalpy (calorimetric) (pH 2.4): 154 kcal/mol | unfolding enthalpy (van 't Hoff) (pH 2.4): 87.9 kcal/mol | Tm (pH 2.9): 78.3 °C | unfolding enthalpy (calorimetric) (pH 2.9): 175 kcal/mol | unfolding enthalpy (van 't Hoff) (pH 2.9): 95.2 kcal/mol | Tm (pH 3.5): 85.8 °C | unfolding enthalpy (calorimetric) (pH 3.5): 232 kcal/mol | unfolding enthalpy (van 't Hoff) (pH 3.5): 125 kcal/mol
